PMC8298264, “Function of cofactor Akirin2 in the regulation of gene expression in model human neutrophil-like HL60 cells” (Bioscience Reports, 2021)

B1: sp¦Q02218¦ODO1_HUMAN (protein, UniProt Q02218 41-1023, looked up)
2-oxoglutarate dehydrogenase …: SAPVAAEPFLSGTSSNYVEEMYCAWLENPKSVHKSWDIFFRNTNAGAPPGTAYQSPLPLSRGSLAAVAHAQSLVEAQPNVDKLVEDHLAVQSLIRAYQIRGHHVAQLDPLGILDADLDSSVPADIISSTDKLGFYGLDESDLDKVFHLPTTTFIGGQESALPLREIIRRLEMAYCQHIGVEFMFINDLEQCQWIRQKFETPGIMQFTNEEKRTLLARLVRSTRFEEFLQRKWSSEKRFGLEGCEVLIPALKTIIDKSSENGVDYVIMGMPHRGRLNVLANVIRKELEQIFCQFDSKLEAADEGSGDVKYHLGMYHRRINRVTDRNITLSLVANPSHLEAADPVVMGKTKAEQFYCGDTEGKKVMSILLHGDAAFAGQGIVYETFHLSDLPSYTTHGTVHVVVNNQIGFTTDPRMARSSPYPTDVARVVNAPIFHVNSDDPEAVMYVCKVAAEWRSTFHKDVVVDLVCYRRNGHNEMDEPMFTQPLMYKQIRKQKPVLQKYAELLVSQGVVNQPEYEEEISKYDKICEEAFARSKDEKILHIKHWLDSPWPGFFTLDGQPRSMSCPSTGLTEDILTHIGNVASSVPVENFTIHGGLSRILKTRGEMVKNRTVDWALAEYMAFGSLLKEGIHIRLSGQDVERGTFSHRHHVLHDQNVDKRTCIPMNHLWPNQAPYTVCNSSLSEYGVLGFELGFAMASPNALVLWEAQFGDFHNTAQCIIDQFICPGQAKWVRQNGIVLLLPHGMEGMGPEHSSARPERFLQMCNDDPDVLPDLKEANFDINQLYDCNWVVVNCSTPGNFFHVLRRQILLPFRKPLIIFTPKSLLRHPEARSSFDEMLPGTHFQRVIPEDGPAAQNPENVKRLLFCTGKVYYDLTRERKARDMVGQVAITRIEQLSPFPFDLLLKEVQKYPNAELAWCQEEHKNQGYYDYVKPRLRTTISRAKPVWYAGRDPAAAPATGNKKTHLTELQRLLDTAFDLDVFKNFS
B2: sp¦Q9BTT0¦AN32E_HUMAN (protein, UniProt Q9BTT0 1-268, looked up)
Acidic leucine-rich nuclear …: MEMKKKINLELRNRSPEEVTELVLDNCLCVNGEIEGLNDTFKELEFLSMANVELSSLARLPSLNKLRKLELSDNIISGGLEVLAEKCPNLTYLNLSGNKIKDLSTVEALQNLKNLKSLDLFNCEITNLEDYRESIFELLQQITYLDGFDQEDNEAPDSEEEDDEDGDEDDEEEEENEAGPPEGYEEEEEEEEEEDEDEDEDEDEAGSELGEGEEEVGLSYLMKEEIQDEEDDDDYVEEGEEEEEEEEGGLRGEKRKRDAEDDGEEEDD
B3: sp¦P16615¦AT2A2_HUMAN (protein, UniProt P16615 1-1042, looked up)
Sarcoplasmic/endoplasmic …: MENAHTKTVEEVLGHFGVNESTGLSLEQVKKLKERWGSNELPAEEGKTLLELVIEQFEDLLVRILLLAACISFVLAWFEEGEETITAFVEPFVILLILVANAIVGVWQERNAENAIEALKEYEPEMGKVYRQDRKSVQRIKAKDIVPGDIVEIAVGDKVPADIRLTSIKSTTLRVDQSILTGESVSVIKHTDPVPDPRAVNQDKKNMLFSGTNIAAGKAMGVVVATGVNTEIGKIRDEMVATEQERTPLQQKLDEFGEQLSKVISLICIAVWIINIGHFNDPVHGGSWIRGAIYYFKIAVALAVAAIPEGLPAVITTCLALGTRRMAKKNAIVRSLPSVETLGCTSVICSDKTGTLTTNQMSVCRMFILDRVEGDTCSLNEFTITGSTYAPIGEVHKDDKPVNCHQYDGLVELATICALCNDSALDYNEAKGVYEKVGEATETALTCLVEKMNVFDTELKGLSKIERANACNSVIKQLMKKEFTLEFSRDRKSMSVYCTPNKPSRTSMSKMFVKGAPEGVIDRCTHIRVGSTKVPMTSGVKQKIMSVIREWGSGSDTLRCLALATHDNPLRREEMHLEDSANFIKYETNLTFVGCVGMLDPPRIEVASSVKLCRQAGIRVIMITGDNKGTAVAICRRIGIFGQDEDVTSKAFTGREFDELNPSAQRDACLNARCFARVEPSHKSKIVEFLQSFDEITAMTGDGVNDAPALKKAEIGIAMGSGTAVAKTASEMVLADDNFSTIVAAVEEGRAIYNNMKQFIRYLISSNVGEVVCIFLTAALGFPEALIPVQLLWVNLVTDGLPATALGFNPPDLDIMNKPPRNPKEPLISGWLFFRYLAIGCYVGAATVGAAAWWFIAADGGPRVSFYQLSHFLQCKEDNPDFEGVDCAIFESPYPMTMALSVLVTIEMCNALNSLSENQSLLRMPPWENIWLVGSICLSMSLHFLILYVEPLPLIFQITPLNVTQWLMVLKISLPVILMDETLKFVARNYLEPGKECVQPATKSCSFSACTDGISWPFVLLIMPLVIWVYSTDTNFSDMFWS
B4: sp¦Q9Y3A6¦TMED5_HUMAN (protein, UniProt Q9Y3A6 28-229, looked up)
Transmembrane emp24 …: FTPSLDSDFTFTLPAGQKECFYQPMPLKASLEIEYQVLDGAGLDIDFHLASPEGKTLVFEQRKSDGVHTVETEVGDYMFCFDNTFSTISEKVIFFELILDNMGEQAQEQEDWKKYITGTDILDMKLEDILESINSIKSRLSKSGHIQTLLRAFEARDRNIQESNFDRVNFWSMVNLVVMVVVSAIQVYMLKSLFEDKRKSRT
B5: sp¦Q9NVJ2¦ARL8B_HUMAN (protein, UniProt Q9NVJ2 1-186, looked up)
ADP-ribosylation factor-like …: MLALISRLLDWFRSLFWKEEMELTLVGLQYSGKTTFVNVIASGQFSEDMIPTVGFNMRKVTKGNVTIKIWDIGGQPRFRSMWERYCRGVNAIVYMIDAADREKIEASRNELHNLLDKPQLQGIPVLVLGNKRDLPNALDEKQLIEKMNLSAIQDREICCYSISCKEKDNIDITLQWLIQHSKSRRS
B6: sp¦O96011¦PX11B_HUMAN (protein, UniProt O96011 1-259, looked up)
Peroxisomal membrane protein …: MDAWVRFSAQSQARERLCRAAQYACSLLGHALQRHGASPELQKQIRQLESHLSLGRKLLRLGNSADALESAKRAVHLSDVVLRFCITVSHLNRALYFACDNVLWAGKSGLAPRVDQEKWAQRSFRYYLFSLIMNLSRDAYEIRLLMEQESSACSRRLKGSGGGVPGGSETGGLGGPGTPGGGLPQLALKLRLQVLLLARVLRGHPPLLLDVVRNACDLFIPLDKLGLWRCGPGIVGLCGLVSSILSILTLIYPWLRLKP
B7: sp¦Q8WU39¦MZB1_HUMAN (protein, UniProt Q8WU39 23-189, looked up)
Marginal zone B- and …: DRAPLTATAPQLDDEEMYSAHMPAHLRCDACRAVAYQMWQNLAKAETKLHTSNSGGRRELSELVYTDVLDRSCSRNWQDYGVREVDQVKRLTGPGLSEGPEPSISVMVTGGPWPTRLSRTCLHYLGEFGEDQIYEAHQQGRGALEALLCGGPQGACSEKVSATREEL
B8: sp¦Q9NVA1¦UQCC1_HUMAN (protein, UniProt Q9NVA1 1-299, looked up)
Ubiquinol-cytochrome c …: MALLVRVLRNQTSISQWVPVCSRLIPVSPTQGQGDRALSRTSQWPQMSQSRACGGSEQIPGIDIQLNRKYHTTRKLSTTKDSPQPVEEKVGAFTKIIEAMGFTGPLKYSKWKIKIAALRMYTSCVEKTDFEEFFLRCQMPDTFNSWFLITLLHVWMCLVRMKQEGRSGKYMCRIIVHFMWEDVQQRGRVMGVNPYILKKNMILMTNHFYAAILGYDEGILSDDHGLAAALWRTFFNRKCEDPRHLELLVEYVRKQIQYLDSMNGEDLLLTGEVSWRPLVEKNPQSILKPHSPTYNDEGL
B9: sp¦Q9Y276¦BCS1_HUMAN (protein, UniProt Q9Y276 2-419, looked up)
Mitochondrial chaperone BCS1: PLSDFILALKDNPYFGAGFGLVGVGTALALARKGVQLGLVAFRRHYMITLEVPARDRSYAWLLSWLTRHSTRTQHLSVETSYLQHESGRISTKFEFVPSPGNHFIWYRGKWIRVERSREMQMIDLQTGTPWESVTFTALGTDRKVFFNILEEARELALQQEEGKTVMYTAVGSEWRPFGYPRRRRPLNSVVLQQGLADRIVRDVQEFIDNPKWYTDRGIPYRRGYLLYGPPGCGKSSFITALAGELEHSICLLSLTDSSLSDDRLNHLLSVAPQQSLVLLEDVDAAFLSRDLAVENPVKYQGLGRLTFSGLLNALDGVASTEARIVFMTTNHVDRLDPALIRPGRVDLKEYVGYCSHWQLTQMFQRFYPGQAPSLAENFAEHVLRATNQISPAQVQGYFMLYKNDPVGAIHNAESLRR
B10: sp¦Q9UGP8¦SEC63_HUMAN (protein, UniProt Q9UGP8 1-760, looked up)
Translocation protein SEC63 …: MAGQQFQYDDSGNTFFYFLTSFVGLIVIPATYYLWPRDQNAEQIRLKNIRKVYGRCMWYRLRLLKPQPNIIPTVKKIVLLAGWALFLFLAYKVSKTDREYQEYNPYEVLNLDPGATVAEIKKQYRLLSLKYHPDKGGDEVMFMRIAKAYAALTDEESRKNWEEFGNPDGPQATSFGIALPAWIVDQKNSILVLLVYGLAFMVILPVVVGSWWYRSIRYSGDQILIRTTQIYTYFVYKTRNMDMKRLIMVLAGASEFDPQYNKDATSRPTDNILIPQLIREIGSINLKKNEPPLTCPYSLKARVLLLSHLARMKIPETLEEDQQFMLKKCPALLQEMVNVICQLIVMARNREEREFRAPTLASLENCMKLSQMAVQGLQQFKSPLLQLPHIEEDNLRRVSNHKKYKIKTIQDLVSLKESDRHTLLHFLEDEKYEEVMAVLGSFPYVTMDIKSQVLDDEDSNNITVGSLVTVLVKLTRQTMAEVFEKEQSICAAEEQPAEDGQGETNKNRTKGGWQQKSKGPKKTAKSKKKKPLKKKPTPVLLPQSKQQKQKQANGVVGNEAAVKEDEEEVSDKGSDSEEEETNRDSQSEKDDGSDRDSDREQDEKQNKDDEAEWQELQQSIQRKERALLETKSKITHPVYSLYFPEEKQEWWWLYIADRKEQTLISMPYHVCTLKDTEEVELKFPAPGKPGNYQYTVFLRSDSYMGLDQIKPLKLEVHEAKPVPENHPQWDTAIEGDEDQEDSEGFEDSFEEEEEEEEDDD
B11: sp¦O60488¦ACSL4_HUMAN (protein, UniProt O60488 1-711, looked up)
Long-chain-fatty-acid--CoA …: MKLKLNVLTIILLPVHLLITIYSALIFIPWYFLTNAKKKNAMAKRIKAKPTSDKPGSPYRSVTHFDSLAVIDIPGADTLDKLFDHAVSKFGKKDSLGTREILSEENEMQPNGKVFKKLILGNYKWMNYLEVNRRVNNFGSGLTALGLKPKNTIAIFCETRAEWMIAAQTCFKYNFPLVTLYATLGKEAVVHGLNESEASYLITSVELLESKLKTALLDISCVKHIIYVDNKAINKAEYPEGFEIHSMQSVEELGSNPENLGIPPSRPTPSDMAIVMYTSGSTGRPKGVMMHHSNLIAGMTGQCERIPGLGPKDTYIGYLPLAHVLELTAEISCFTYGCRIGYSSPLTLSDQSSKIKKGSKGDCTVLKPTLMAAVPEIMDRIYKNVMSKVQEMNYIQKTLFKIGYDYKLEQIKKGYDAPLCNLLLFKKVKALLGGNVRMMLSGGAPLSPQTHRFMNVCFCCPIGQGYGLTESCGAGTVTEVTDYTTGRVGAPLICCEIKLKDWQEGGYTINDKPNPRGEIVIGGQNISMGYFKNEEKTAEDYSVDENGQRWFCTGDIGEFHPDGCLQIIDRKKDLVKLQAGEYVSLGKVEAALKNCPLIDNICAFAKSDQSYVISFVVPNQKRLTLLAQQKGVEGTWVDICNNPAMEAEILKEIREAANAMKLERFEIPIKVRLSPEPWTPETGLVTDAFKLKRKELRNHYLKDIERMYGGK

Tested on: human HL60 cells
Test: SWATH-MS proteomics, differential protein representation, akirin2 KO vs WT HL60 cells
Type: cell-based
Settings: sheet "Under-represented in KO"
Summary of the method: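 Differential representation compares akirin2 KO with WT HL60 across three biological replicates, 5 µg digest each, acquired by data-independent SWATH on a 120-min gradient. Library built from combined IDA runs searched with Paragon; proteins accepted at 1% FDR, with total-area-sum normalization.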

| Molecule | Fold Change (KO vs WT HL60 cells) | Log (Fold Change) (KO vs WT HL60 cells) | Fold Change (akirin2 KO vs WT HL60 cells) | Log (Fold Change) (akirin2 KO vs WT HL60 cells) |
| --- | --- | --- | --- | --- |
| B1 | 0.5221 | -0.2822 |  |  |
| B2 | 0.5286 | -0.2769 |  |  |
| B3 | 0.5392 | -0.2682 |  |  |
| B4 |  |  | 0.2554 | -0.5928 |
| B5 | 0.5417 | -0.2663 |  |  |
| B6 | 0.5344 | -0.2721 |  |  |
| B7 | 0.5261 | -0.279 |  |  |
| B8 | 0.5349 | -0.2718 |  |  |
| B9 | 0.5207 | -0.2834 |  |  |
| B10 | 0.5228 | -0.2816 |  |  |
| B11 | 0.5384 | -0.2689 |  |  |
